According to patent US20260001928A1 (CORTERIA PHARMACEUTICALS, priority 2022, published 2026):
*1 amine or outer side, *2 acyl side, *3 side chain or, on linkers, in order; H or OH if unused. Where no end group is shown, it is not given here. Side-chain parts run from the residue outwards. [ ]: non-standard residue; d: D form. The star is where a group is joined. C18 diacid = O=C(O)CCCCCCCCCCCCCCCCC(=O)*; C16 diacid = O=C(O)CCCCCCCCCCCCCCC(=O)*; γGlu = O=C(O)[C@H](CCC(=O)[*:2])N[*:1]; NMeI = CC[C@H](C)[C@H](NC)C(=O)O; Isovaleryl = CC(C)CC(=O)*; Pentanoyl = CCCCC(=O)*; Aib = CC(C)(N)C(=O)O

Tests used:
CRF1R receptor = molecular target: T1, CRF1R receptor (UniProt P34998 24-415, limits assumed); assay: cell-based or functional assay
T1 sequence (looked up): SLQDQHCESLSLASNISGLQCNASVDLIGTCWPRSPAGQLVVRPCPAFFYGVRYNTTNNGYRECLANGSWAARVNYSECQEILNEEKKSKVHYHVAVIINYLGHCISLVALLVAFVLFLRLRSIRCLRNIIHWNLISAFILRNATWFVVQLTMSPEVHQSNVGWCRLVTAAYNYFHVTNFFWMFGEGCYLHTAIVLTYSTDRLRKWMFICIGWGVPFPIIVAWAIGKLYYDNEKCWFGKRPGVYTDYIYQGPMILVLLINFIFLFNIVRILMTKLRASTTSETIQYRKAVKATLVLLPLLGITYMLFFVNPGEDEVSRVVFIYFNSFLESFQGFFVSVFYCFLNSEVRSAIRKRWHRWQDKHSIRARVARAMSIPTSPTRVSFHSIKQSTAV

[1] = molecular target: human corticotropin-releasing factor 2a (CRF2a receptor) (human), Q13324; assay: cell-based or functional assay
Sequence of human corticotropin-releasing factor 2a (CRF2a receptor) (human), Q13324 (Q13324 20-411): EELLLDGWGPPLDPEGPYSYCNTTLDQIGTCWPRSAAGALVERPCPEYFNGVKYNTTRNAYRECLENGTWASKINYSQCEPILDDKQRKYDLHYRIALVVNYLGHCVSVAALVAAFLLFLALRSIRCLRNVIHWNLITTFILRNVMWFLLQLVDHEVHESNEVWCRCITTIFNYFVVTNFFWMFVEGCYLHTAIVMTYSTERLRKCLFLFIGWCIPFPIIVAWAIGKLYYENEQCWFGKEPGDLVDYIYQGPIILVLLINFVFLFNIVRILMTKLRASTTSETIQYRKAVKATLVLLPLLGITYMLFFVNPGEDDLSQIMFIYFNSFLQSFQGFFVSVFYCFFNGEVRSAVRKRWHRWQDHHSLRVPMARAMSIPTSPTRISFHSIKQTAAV

Row | Binder | EC50 (CRF1R receptor) [nM] | Emax (% I) (CRF1R receptor) [%] | EC50 [nM] (cAMP) [1]
1 | Isovaleryl-VLSLD[dV]PIKLK([γGlu-C16 diacid])QILLKQERQKKQREQAEKNKQILEQV-NH2 (SMILES CC[C@H](C)[C@H](NC(=O)[C@H](CCC(N)=O)NC(=O)[C@H](CCCCNC(=O)CC[C@H](NC(=O)CCCCCCCCCCCCCCC(=O)O)C(=O)O)NC(=O)[C@H](CC(C)C)NC(=O)[C@H](CCCCN)NC(=O)[C@@H](NC(=O)[C@@H]1CCCN1C(=O)[C@H](NC(=O)[C@H](CC(=O)O)NC(=O)[C@H](CC(C)C)NC(=O)[C@H](CO)NC(=O)[C@H](CC(C)C)NC(=O)[C@@H](NC(=O)CC(C)C)C(C)C)C(C)C)[C@@H](C)CC)C(=O)N[C@@H](CC(C)C)C(=O)N[C@@H](CC(C)C)C(=O)N[C@@H](CCCCN)C(=O)N[C@@H](CCC(N)=O)C(=O)N[C@@H](CCC(=O)O)C(=O)N[C@@H](CCCNC(=N)N)C(=O)N[C@@H](CCC(N)=O)C(=O)N[C@@H](CCCCN)C(=O)N[C@@H](CCCCN)C(=O)N[C@@H](CCC(N)=O)C(=O)N[C@@H](CCCNC(=N)N)C(=O)N[C@@H](CCC(=O)O)C(=O)N[C@@H](CCC(N)=O)C(=O)N[C@@H](C)C(=O)N[C@@H](CCC(=O)O)C(=O)N[C@@H](CCCCN)C(=O)N[C@@H](CC(N)=O)C(=O)N[C@@H](CCCCN)C(=O)N[C@@H](CCC(N)=O)C(=O)N[C@H](C(=O)N[C@@H](CC(C)C)C(=O)N[C@@H](CCC(=O)O)C(=O)N[C@@H](CCC(N)=O)C(=O)N[C@H](C(N)=O)C(C)C)[C@@H](C)CC) [SEQ ID NO 9] | 28.2 | 77 | 0.16
2 | [NMeI]VLSLD[dV]PIGLK([γGlu-C18 diacid])KILLEQEKQKKQREQAETN[Aib]QILAQV-NH2 (N-terminus assumed; SMILES CC[C@H](C)[C@H](NC)C(=O)N[C@H](C(=O)N[C@@H](CC(C)C)C(=O)N[C@@H](CO)C(=O)N[C@@H](CC(C)C)C(=O)N[C@@H](CC(=O)O)C(=O)N[C@@H](C(=O)N1CCC[C@H]1C(=O)N[C@H](C(=O)NCC(=O)N[C@@H](CC(C)C)C(=O)N[C@@H](CCCCNC(=O)CC[C@H](NC(=O)CCCCCCCCCCCCCCCCC(=O)O)C(=O)O)C(=O)N[C@@H](CCCCN)C(=O)N[C@H](C(=O)N[C@@H](CC(C)C)C(=O)N[C@@H](CC(C)C)C(=O)N[C@@H](CCC(=O)O)C(=O)N[C@@H](CCC(N)=O)C(=O)N[C@@H](CCC(=O)O)C(=O)N[C@@H](CCCCN)C(=O)N[C@@H](CCC(N)=O)C(=O)N[C@@H](CCCCN)C(=O)N[C@@H](CCCCN)C(=O)N[C@@H](CCC(N)=O)C(=O)N[C@@H](CCCNC(=N)N)C(=O)N[C@@H](CCC(=O)O)C(=O)N[C@@H](CCC(N)=O)C(=O)N[C@@H](C)C(=O)N[C@@H](CCC(=O)O)C(=O)N[C@H](C(=O)N[C@@H](CC(N)=O)C(=O)NC(C)(C)C(=O)N[C@@H](CCC(N)=O)C(=O)N[C@H](C(=O)N[C@@H](CC(C)C)C(=O)N[C@@H](C)C(=O)N[C@@H](CCC(N)=O)C(=O)N[C@H](C(N)=O)C(C)C)[C@@H](C)CC)[C@@H](C)O)[C@@H](C)CC)[C@@H](C)CC)C(C)C)C(C)C) [SEQ ID NO 192] | – | 19 | 0.11
3 | Ac-IVLSLD[dV]PIKLK([γGlu-C18 diacid])KILLEQEKQKAQREQAETN[Aib]QILAQV-NH2 (SMILES CC[C@H](C)[C@H](NC(C)=O)C(=O)N[C@H](C(=O)N[C@@H](CC(C)C)C(=O)N[C@@H](CO)C(=O)N[C@@H](CC(C)C)C(=O)N[C@@H](CC(=O)O)C(=O)N[C@@H](C(=O)N1CCC[C@H]1C(=O)N[C@H](C(=O)N[C@@H](CCCCN)C(=O)N[C@@H](CC(C)C)C(=O)N[C@@H](CCCCNC(=O)CC[C@H](NC(=O)CCCCCCCCCCCCCCCCC(=O)O)C(=O)O)C(=O)N[C@@H](CCCCN)C(=O)N[C@H](C(=O)N[C@@H](CC(C)C)C(=O)N[C@@H](CC(C)C)C(=O)N[C@@H](CCC(=O)O)C(=O)N[C@@H](CCC(N)=O)C(=O)N[C@@H](CCC(=O)O)C(=O)N[C@@H](CCCCN)C(=O)N[C@@H](CCC(N)=O)C(=O)N[C@@H](CCCCN)C(=O)N[C@@H](C)C(=O)N[C@@H](CCC(N)=O)C(=O)N[C@@H](CCCNC(=N)N)C(=O)N[C@@H](CCC(=O)O)C(=O)N[C@@H](CCC(N)=O)C(=O)N[C@@H](C)C(=O)N[C@@H](CCC(=O)O)C(=O)N[C@H](C(=O)N[C@@H](CC(N)=O)C(=O)NC(C)(C)C(=O)N[C@@H](CCC(N)=O)C(=O)N[C@H](C(=O)N[C@@H](CC(C)C)C(=O)N[C@@H](C)C(=O)N[C@@H](CCC(N)=O)C(=O)N[C@H](C(N)=O)C(C)C)[C@@H](C)CC)[C@@H](C)O)[C@@H](C)CC)[C@@H](C)CC)C(C)C)C(C)C) [SEQ ID NO 189] | – | 9 | 0.29
4 | Ac-IVLSLD[dV]PIGLK([γGlu-C18 diacid])KILLEQEKQKKQREQAETN[Aib]QILAQV-NH2 (SMILES CC[C@H](C)[C@H](NC(C)=O)C(=O)N[C@H](C(=O)N[C@@H](CC(C)C)C(=O)N[C@@H](CO)C(=O)N[C@@H](CC(C)C)C(=O)N[C@@H](CC(=O)O)C(=O)N[C@@H](C(=O)N1CCC[C@H]1C(=O)N[C@H](C(=O)NCC(=O)N[C@@H](CC(C)C)C(=O)N[C@@H](CCCCNC(=O)CC[C@H](NC(=O)CCCCCCCCCCCCCCCCC(=O)O)C(=O)O)C(=O)N[C@@H](CCCCN)C(=O)N[C@H](C(=O)N[C@@H](CC(C)C)C(=O)N[C@@H](CC(C)C)C(=O)N[C@@H](CCC(=O)O)C(=O)N[C@@H](CCC(N)=O)C(=O)N[C@@H](CCC(=O)O)C(=O)N[C@@H](CCCCN)C(=O)N[C@@H](CCC(N)=O)C(=O)N[C@@H](CCCCN)C(=O)N[C@@H](CCCCN)C(=O)N[C@@H](CCC(N)=O)C(=O)N[C@@H](CCCNC(=N)N)C(=O)N[C@@H](CCC(=O)O)C(=O)N[C@@H](CCC(N)=O)C(=O)N[C@@H](C)C(=O)N[C@@H](CCC(=O)O)C(=O)N[C@H](C(=O)N[C@@H](CC(N)=O)C(=O)NC(C)(C)C(=O)N[C@@H](CCC(N)=O)C(=O)N[C@H](C(=O)N[C@@H](CC(C)C)C(=O)N[C@@H](C)C(=O)N[C@@H](CCC(N)=O)C(=O)N[C@H](C(N)=O)C(C)C)[C@@H](C)CC)[C@@H](C)O)[C@@H](C)CC)[C@@H](C)CC)C(C)C)C(C)C) [SEQ ID NO 191] | 92.9 | 54 | 0.18
5 | Ac-IVLSLD[dV]PIKLK([γGlu-C18 diacid])KILLEQEKQK[Aib]QREQAETN[Aib]QILAQV-NH2 (SMILES CC[C@H](C)[C@H](NC(C)=O)C(=O)N[C@H](C(=O)N[C@@H](CC(C)C)C(=O)N[C@@H](CO)C(=O)N[C@@H](CC(C)C)C(=O)N[C@@H](CC(=O)O)C(=O)N[C@@H](C(=O)N1CCC[C@H]1C(=O)N[C@H](C(=O)N[C@@H](CCCCN)C(=O)N[C@@H](CC(C)C)C(=O)N[C@@H](CCCCNC(=O)CC[C@H](NC(=O)CCCCCCCCCCCCCCCCC(=O)O)C(=O)O)C(=O)N[C@@H](CCCCN)C(=O)N[C@H](C(=O)N[C@@H](CC(C)C)C(=O)N[C@@H](CC(C)C)C(=O)N[C@@H](CCC(=O)O)C(=O)N[C@@H](CCC(N)=O)C(=O)N[C@@H](CCC(=O)O)C(=O)N[C@@H](CCCCN)C(=O)N[C@@H](CCC(N)=O)C(=O)N[C@@H](CCCCN)C(=O)NC(C)(C)C(=O)N[C@@H](CCC(N)=O)C(=O)N[C@@H](CCCNC(=N)N)C(=O)N[C@@H](CCC(=O)O)C(=O)N[C@@H](CCC(N)=O)C(=O)N[C@@H](C)C(=O)N[C@@H](CCC(=O)O)C(=O)N[C@H](C(=O)N[C@@H](CC(N)=O)C(=O)NC(C)(C)C(=O)N[C@@H](CCC(N)=O)C(=O)N[C@H](C(=O)N[C@@H](CC(C)C)C(=O)N[C@@H](C)C(=O)N[C@@H](CCC(N)=O)C(=O)N[C@H](C(N)=O)C(C)C)[C@@H](C)CC)[C@@H](C)O)[C@@H](C)CC)[C@@H](C)CC)C(C)C)C(C)C) [SEQ ID NO 190] | – | 9 | 0.3
6 | Pentanoyl-VLSLD[dV]PIKLK([γGlu-C18 diacid])KILLEQEKQKKQREQAETN[Aib]QILAQV-NH2 (SMILES CCCCC(=O)N[C@H](C(=O)N[C@@H](CC(C)C)C(=O)N[C@@H](CO)C(=O)N[C@@H](CC(C)C)C(=O)N[C@@H](CC(=O)O)C(=O)N[C@@H](C(=O)N1CCC[C@H]1C(=O)N[C@H](C(=O)N[C@@H](CCCCN)C(=O)N[C@@H](CC(C)C)C(=O)N[C@@H](CCCCNC(=O)CC[C@H](NC(=O)CCCCCCCCCCCCCCCCC(=O)O)C(=O)O)C(=O)N[C@@H](CCCCN)C(=O)N[C@H](C(=O)N[C@@H](CC(C)C)C(=O)N[C@@H](CC(C)C)C(=O)N[C@@H](CCC(=O)O)C(=O)N[C@@H](CCC(N)=O)C(=O)N[C@@H](CCC(=O)O)C(=O)N[C@@H](CCCCN)C(=O)N[C@@H](CCC(N)=O)C(=O)N[C@@H](CCCCN)C(=O)N[C@@H](CCCCN)C(=O)N[C@@H](CCC(N)=O)C(=O)N[C@@H](CCCNC(=N)N)C(=O)N[C@@H](CCC(=O)O)C(=O)N[C@@H](CCC(N)=O)C(=O)N[C@@H](C)C(=O)N[C@@H](CCC(=O)O)C(=O)N[C@H](C(=O)N[C@@H](CC(N)=O)C(=O)NC(C)(C)C(=O)N[C@@H](CCC(N)=O)C(=O)N[C@H](C(=O)N[C@@H](CC(C)C)C(=O)N[C@@H](C)C(=O)N[C@@H](CCC(N)=O)C(=O)N[C@H](C(N)=O)C(C)C)[C@@H](C)CC)[C@@H](C)O)[C@@H](C)CC)[C@@H](C)CC)C(C)C)C(C)C) [SEQ ID NO 193] | – | 20 | 0.17
